To fix the notation:
B1: AFF1-THD (953-1210), wild type [not stated] / itself (parent)
chain: GKPQVKFDKQQADLHMREAKKMKQKAELMTDRVGKAFKYLEAVLSFIECGIATESESQSSKSAYSVYSETVDLIKFIMSLKSFSDATAPTQEKIFAVLCMRCQSILNMAMFRCKKDIAIKYSRTLNKHFESSSKVAQAPSPCIASTGTPSPLSPMPSPASSVGSQSSAGSVGSSGVAATISTPVTIQNMTSSYVTITSHVLTAFDLWEQAEALTRKNKEFFARLSTNVCTLALNSSLVDLVHYTRQGFQQLQELTKTP
B2: human AFF4-THD (902-1163), wild type [human] / itself (parent)
chain: RRTKLVFDDRNYSADHYLQEAKKLKHNADALSDRFEKAVYYLDAVVSFIECGNALEKNAQESKSPFPMYSETVDLIKYTMKLKNYLAPDATAADKRLTVLCLRCESLLYLRLFKLKKENALKYSKTLTEHLKNSYNNSQAPSPGLGSKAVGMPSPVSPKLSPGNSGNYSSGASSASASGSSVTIPQKIHQMAASYVQVTSNFLYATEIWDQAEQLSKEQKEFFAELDKVMGPLIFNASIMTDLVRYTRQGLHWLRQDAKLIS

The variants in the first assay derive from B1. In words: analytical gel filtration. As to conditions: with itself; read off a plot. For orientation: SEC sorts molecules by how far they enter the pores of the column.
In the case of GKPQVKFDKQQADLHMREAKKMKQKAELMTDRVGKAFKYLEAVLSFIECGIATESESQSSKSAYSVYSETVDLIKFIMSLKSFSDATAPTQEKIFAVLCMRCQSILNMAMARCKKDIAIKYSRTLNKHFESSSKVAQAPSPCIASTGTPSPLSPMPSPASSVGSQSSAGSVGSSGVAATISTPVTIQNMTSSAATITSHALTAFDLWEQAEALTRKNKEFFARLSTNVCTLALNSSLVDLVHYTRQGFQQLQELTKTP [chain 1 F111A Y193A V194A V200A], the screen value was 10.5 mL.
In the case of GKPQVKFDKQQADLHMREAKKMKQKAELMTDRVGKAFKYLEAVLSFIECGIATESESQSSKSAYSVYSETVDLIKFIMSLKSFSDATAPTQEKIFAVLCMRCQSILNMAMARCKKDIAIKYSRTLNKHFESSSKVAQAPSPCIASTGTPSPLSPMPSPASSVGSQSSAGSVGSSGVAATISTPVTIQNMTSSYVTITSHVLTAFDLWEQAEALTRKNKEFFARLSTNVCTLALNSSLVDLVHYTRQGFQQLQELTKTP [chain 1 F111A], the screen value worked out at 9.4 mL.
Still for that read-out and setting: with GKPQVKFDKQQADLHMREAKKMKQKAELMTDRVGKAFKYLEAVLSFIECGIATESESQSSKSAYSVYSETVDLIKFIMSLKSFSDATAPTQEKIFAVLCMRCQSILNMAMFRCKKDIAIKYSRTLNKHFESSSKVAQAPSPCIASTGTPSPLSPMPSPASSVGSQSSAGSVGSSGVAATISTPVTIQNMTSSAVTITSHVLTAFDLWEQAEALTRKNKEFFARLSTNVCTLALNSSLVDLVHYTRQGFQQLQELTKTP [chain 1 Y193A] the figure was 9.5 mL.

The variants in another assay derive from B1. In words: sedimentation velocity analytical ultracentrifugation. As to conditions: with itself.
In the case of GKPQVKFDKQQADLHMREAKKMKQKAELMTDRVGKAFKYLEAVLSFIECGIATESESQSSKSAYSVYSETVDLIKFIMSLKSFSDATAPTQEKIFAVLCMRCQSILNMAMARCKKDIAIKYSRTLNKHFESSSKVAQAPSPCIASTGTPSPLSPMPSPASSVGSQSSAGSVGSSGVAATISTPVTIQNMTSSAATITSHALTAFDLWEQAEALTRKNKEFFARLSTNVCTLALNSSLVDLVHYTRQGFQQLQELTKTP [chain 1 F111A Y193A V194A V200A], the screen value is 27.2 kD.

The same assay, now with this note: with itself; read off a plot.
Consider GKPQVKFDKQQADLHMREAKKMKQKAELMTDRVGKAFKYLEAVLSFIECGIATESESQSSKSAYSVYSETVDLIKFIMSLKSFSDATAPTQEKIFAVLCMRCQSILNMAMARCKKDIAIKYSRTLNKHFESSSKVAQAPSPCIASTGTPSPLSPMPSPASSVGSQSSAGSVGSSGVAATISTPVTIQNMTSSAATITSHALTAFDLWEQAEALTRKNKEFFARLSTNVCTLALNSSLVDLVHYTRQGFQQLQELTKTP [chain 1 F111A Y193A V194A V200A], for which the screen value turned out to be 2.2 S.

A further assay covers variants of B2. In words: analytical gel filtration. Particulars: with itself; read off a plot.
Consider RRTKLVFDDRNYSADHYLQEAKKLKHNADALSDRFEKAVYYLDAVVSFIECGNALEKNAQESKSPFPMYSETVDLIKYTMKLKNYLAPDATAADKRLTVLCLRCESLLYLRLAKLKKENALKYSKTLTEHLKNSYNNSQAPSPGLGSKAVGMPSPVSPKLSPGNSGNYSSGASSASASGSSVTIPQKIHQMAASYVQVTSNFLYATEIWDQAEQLSKEQKEFFAELDKVMGPLIFNASIMTDLVRYTRQGLHWLRQDAKLIS [chain 1 F113A], for which the screen value was determined as 10.6 mL.
On the same count and under the same terms, under RRTKLVFDDRNYSADHYLQEAKKLKHNADALSDRFEKAVYYLDAVVSFIECGNALEKNAQESKSPFPMYSETVDLIKYTMKLKNYLAPDATAADKRLTVLCLRCESLLYLRLAKLKKENALKYSKTLTEHLKNSYNNSQAPSPGLGSKAVGMPSPVSPKLSPGNSGNYSSGASSASASGSSVTIPQKIHQMAASAVQVTSNFLYATEIWDQAEQLSKEQKEFFAELDKVMGPLIFNASIMTDLVRYTRQGLHWLRQDAKLIS [chain 1 F113A Y195A] stands 10.8 mL.
Still for that read-out and setting: under RRTKLVFDDRNYSADHYLQEAKKLKHNADALSDRFEKAVYYLDAVVSFIECGNALEKNAQESKSPFPMYSETVDLIKYTMKLKNYLAPDATAADKRLTVLCLRCESLLYLRLFKLKKENALKYSKTLTEHLKNSYNNSQAPSPGLGSKAVGMPSPVSPKLSPGNSGNYSSGASSASASGSSVTIPQKIHQMAASAVQVTSNFLYATEIWDQAEQLSKEQKEFFAELDKVMGPLIFNASIMTDLVRYTRQGLHWLRQDAKLIS [chain 1 Y195A] stands 10.9 mL.

In a further assay the parent is B2. In words: sedimentation velocity analytical ultracentrifugation. Particulars: with itself.
RRTKLVFDDRNYSADHYLQEAKKLKHNADALSDRFEKAVYYLDAVVSFIECGNALEKNAQESKSPFPMYSETVDLIKYTMKLKNYLAPDATAADKRLTVLCLRCESLLYLRLAKLKKENALKYSKTLTEHLKNSYNNSQAPSPGLGSKAVGMPSPVSPKLSPGNSGNYSSGASSASASGSSVTIPQKIHQMAASAVQVTSNFLYATEIWDQAEQLSKEQKEFFAELDKVMGPLIFNASIMTDLVRYTRQGLHWLRQDAKLIS [chain 1 F113A Y195A]: the screen value amounted to 28.9 kD.

The same assay, now with this note: with itself; read off a plot.
For the variant RRTKLVFDDRNYSADHYLQEAKKLKHNADALSDRFEKAVYYLDAVVSFIECGNALEKNAQESKSPFPMYSETVDLIKYTMKLKNYLAPDATAADKRLTVLCLRCESLLYLRLAKLKKENALKYSKTLTEHLKNSYNNSQAPSPGLGSKAVGMPSPVSPKLSPGNSGNYSSGASSASASGSSVTIPQKIHQMAASAVQVTSNFLYATEIWDQAEQLSKEQKEFFAELDKVMGPLIFNASIMTDLVRYTRQGLHWLRQDAKLIS [chain 1 F113A Y195A], the screen value is 2.2 S.

These data come from article PMC7026398, “Structural and functional insight into the effect of AFF4 dimerization on activation of HIV-1 proviral transcription” (Cell Discovery, 2020).
